Where “and” joins values, the source holds several entries; their conditions need not be identical. Identical values can stand only once.
Legend:
[1] = molecular target: rat brain Na channel (voltage-sensitive sodium channels in rat brain membranes) (rat); assay: competition on rat brain membranes; label (competitor) 125I-δ-conotoxin TxVIA
[2] = molecular target: rat brain Ca^2+ channels (ω-conotoxin GVIA binding site in rat brain membranes) (rat); assay: competition on rat brain membranes; label (competitor) 125I-ω-conotoxin GVIA
[3] = molecular target: rat brain Ca^2+ channels (ω-conotoxin GVIA binding site in rat brain membranes) (rat); assay: binding of 125I-ω-conotoxin GVIA to rat brain membranes, no competitor
[4] = molecular target: rat brain Na channel (voltage-sensitive sodium channels in rat brain membranes) (rat); assay: binding of 125I-δ-conotoxin TxVIA to rat brain membranes, no competitor
[5] = molecular target: ω-conotoxin GVIA binding sites on brain membrane preparations from frogs, chicks and rats

Substance | cpm bound [1] [cpm] | cpm bound [2] [cpm] | cpm bound [3] [cpm] | cpm bound [4] [cpm] | percent of ^125 I-GVIA displaced [5]
δ-conotoxin PVIA (amidated) (peptide) | 889 | 4930 |  |  | 
^125 I-labeled ω-conotoxin GVIA (from UniProt P01522) (peptide) |  |  | 4400 |  | 
δ-conotoxin TxVIA (peptide) | 925 | 4720 |  |  | 
δ-conotoxin PVIA (nonamidated) (peptide) | 848 | 4390 |  |  | 
^125 I!δ-conotoxin TxVIA (peptide) |  |  |  | 4890 | 
ω-conotoxin GVIA (from UniProt P01522) (peptide) | 4710 | 954 |  |  | 90% and 98%
